Assay results as given in patent US20240309072A1.

B1: REGN14315 (antibody, V domains shown)
VH: QVQLVQSGAEVKKPGSSVKVSCKASGDTFSTYAINWVRQAPGQGLEWMGRFIHIFGTANYAQKFQGRVTITADESTSTAYMELRSLRSEDTAVYYCARDGVDYGDYRPDYWGQGTLVTVSS
VL: EIVLTQSPGTLSLSPGERATLSCRASQSVSSNYLAWYQQKPGQAPRLLIYGASSRATGIPERFSGSGSGTDFTLTISRLEPEDFAVYYCQQYGSSLYTFGQGTKLEIK
B2: REGN14315 + REGN10987 (protein)
VH 1: B1 VH
VL 1: B1 VL
VH 2: QVQLVESGGGVVQPGRSLRLSCAASGFTFSNYAMYWVRQAPGKGLEWVAVISYDGSNKYYADSVKGRFTISRDNSKNTLYLQMNSLRTEDTAVYYCASGSDYGDYLLVYWGQGTLVTVSS
VL 2: QSALTQPASVSGSPGQSITISCTGTSSDVGGYNYVSWYQQHPGKAPKLMIYDVSKRPSGVSNRFSGSKSGNTASLTISGLQSEDEADYYCNSLTSISTWVFGGGTKLTVL
B3: REGN10987 (antibody, V domains shown)
VH: B2 VH 2
VL: B2 VL 2

Target: SARS-COV-2 Spike, Omicron variant BA.4 + R346T (BA.4.6) (SARS-COV-2), P0DTC2
Experiment: cell-based or functional assay

| Binder | Fold change over R10987 against D614G [fold] | pseudovirus neutralization IC50 [nM] |
| --- | --- | --- |
| B1 | 255 | 1.35 |
| B2 | 132 | 0.698 |
| B3 | 236 | 1.25 |
